# Laboratory results: the RNAGym collection of RNA variant scans (doi:10.1073/pnas.2313332121)
# B1: TPR t1 (parent)
# chain: GACCAAUCUGCCCUCAGAGCUCGAGAACAUCUUCGGAUGCAGAGGAGGCAGGCUUCGGUGGCGCGAUAGCGCCAACGUCCUCAACCUCCAAUGCAUCCCACCACAUGAUGAUGCCUGAAGAGCCUUGGUUUUUUG
# Variants of: B1
# Experiment: polymerase ribozyme fitness, log enrichment relative to wild type (log ratio); higher = more active; in vitro selection for triplet polymerase activity
# Outline: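 Fitness is a logarithmic measure of how a genotype enriched relative to the wild type, with replicate averages weighted by inverse variance. The logarithm uses base 2, and enrichment came from Illumina sequencing of input and output libraries. Those libraries were PCR-built, transcribed mutants of each subunit of a heterodimeric triplet polymerase ribozyme, passed through one triplicate in vitro selection round that included frozen incubation at −7 °C, gel excision of extended constructs and streptavidin-bead capture. Genotypes were kept only if they had ≥10 input reads and ≥1 read per output.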
row,Variant,polymerase ribozyme fitness (log ratio)
1,GACCAAUCUGCCCUCAGAGCUCGAGAACAUCUUCGGAUGCAGAGGAGGCAGGCUUCGGUGGCGCGAUAGCGCCAACGUCCUCAACCUCCAAUCCAUCCCACCACAUGAUGAUGCCUGAAGAGCUCUGGUUUUUUG,-1.05
2,GACCAAUCUGCCCUCAGAGCUCGAGAACAUCUUCGGAUGCAGAGGAGGCAGGCUUCGGUGGCGCGAUAGCGCCAACGUCCUCAACCUCCAAUUCAUCCCACAACAUGAUGAUGCCUGAAAAGCCUUGGUUUUUUG,-2.52
3,GACCAAUCUGCCCUCAGAGCUCGAGAACAUCUUCGGAUGCAGAGGAGGCAGGCUUCGGUGGCGCGAUAGCGCCAACGUCCUCAACCUCCAAUACUUCCCACAACAUGAUGAUGCCUGAAGAGCCUUGGUUUUUUG,-4.21
4,GACCAAUCUGCCCUCAGAGCUCGAGAACAUCUUCGGAUGCAGAGGAGGCAGGCUUCGGUGGCGCGAUAGCGCCAACGUCCUCAACCUCCAAUCCAUCCCAACAUAUGAUGAUGCCUGAAGAGCCUUGGUUUUUUG,-2.05
5,GACCAAUCUGCCCUCAGAGCUCGAGAACAUCUUCGGAUGCAGAGGAGGCAGGCUUCGGUGGCGCGAUAGCGCCAACGUCCUCAACCUCCAAUCCAUCCCACCACAUGAUGAUGCCUAAAGAGCCUUGGUUUUUUG,-1.09
6,GACCAAUCUGCCCUCAGAGCUCGAGAACAUCUUCGGAUGCAGAGGAGGCAGGCUUCGGUGGCGCGAUAGCGCCAACGUCCUCAACCUCCAAUCCAUCCCACCACAUGAUGAUGCCUGAAGAGCCUUGGUUGUUUG,-1.28
7,GACCAAUCUGCCCUCAGAGCUCGAGAACAUCUUCGGAUGCAGAGGAGGCAGGCUUCGGUGGCGCGAUAGCGCCAACGUCCUCAACCUCCAAUCCAUCCCACCACAUGAUGAUGCCUGAAGAGCCUUGGUUAUUUG,-1.05
8,GACCAAUCUGCCCUCAGAGCUCGAGAACAUCUUCGGAUGCAGAGGAGGCAGGCUUCGGUGGCGCGAUAGCGCCAACGUCCUCAACCUCCAAGGCAUCCCAUCUCAUGAAGAUGCCUGAAGAGCCUUGGUUUUUUG,-6.74
9,GACCAAUCUGCCCUCAGAGCUCGAGAACAUCUUCGGAUGCAGAGGAGGCAGGCUUCGGUGGCGCGAUAGCGCCAACGUCCUCAACCUCCAAUGACUCCCACCACAUGAUGAUGCCUGAAGAGCCUUGGUUGUUUG,-2.37
10,GACCAAUCUGCCCUCAGAGCUCGAGAACAUCUUCGGAUGCAGAGGAGGCAGGCUUCGGUGGCGCGAUAGCGCCAACGUCCUCAACCUCCAAUGAAUCCCACCACCUGAUGAUGCCUGAAGAGCCUUGGUUUUUUG,-4.8
11,GACCAAUCUGCCCUCAGAGCUCGAGAACAUCUUCGGAUGCAGAGGAGGCAGGCUUCGGUGGCGCGAUAGCGCCAACGUCCUCAACCUCCAAUGAAUCCCACCACUUGAUGAUGCCUGAAGAGCCUUGGUUUUUUG,-3.27
12,GACCAAUCUGCCCUCAGAGCUCGAGAACAUCUUCGGAUGCAGAGGAGGCAGGCUUCGGUGGCGCGAUAGCGCCAACGUCCUCAACCUCCAAUUCAUCCCACCAAAUGAUGAUGCCUGAAGAGCCUUGGUUUUUUG,-2.9
13,GACCAAUCUGCCCUCAGAGCUCGAGAACAUCUUCGGAUGCAGAGGAGGCAGGCUUCGGUGGCGCGAUAGCGCCAACGUCCUCAACCUCCAAUUCAUCCCACCACAUGAUGAUGCCUGAAGAGCCUUGGUUUUCUG,-1.17
14,GACCAAUCUGCCCUCAGAGCUCGAGAACAUCUUCGGAUGCAGAGGAGGCAGGCUUCGGUGGCGCGAUAGCGCCAACGUCCUCAACCUCCAAUUCAUCCCACCACAUGAUGAUGCCUGAAGUGCCUUGGUUGUUUG,0.33
15,GACCAAUCUGCCCUCAGAGCUCGAGAACAUCUUCGGAUGCAGAGGAGGCAGGCUUCGGUGGCGCGAUAGCGCCAACGUCCUCAACCUCCAAUUCAUCCCAACACAUGAUGAUUCCUAAAGAGCCUUGGUUUUUUG,-6.98
16,GACCAAUCUGCCCUCAGAGCUCGAGAACAUCUUCGGAUGCAGAGGAGGCAGGCUUCGGUGGCGCGAUAGCGCCAACGUCCUCAACCUCCAAUGAAUCCCACUACAUGAUGAUGCCUGAAGAGCCUUGGUUUUUUG,-4.66
17,GACCAAUCUGCCCUCAGAGCUCGAGAACAUCUUCGGAUGCAGAGGAGGCAGGCUUCGGUGGCGCGAUAGCGCCAACGUCCUCAACCUCCAAUACAUCCCACCACAUGAUGAUGCCCGAAGAGCCUUGGUUUUUUG,-1.68
18,GACCAAUCUGCCCUCAGAGCUCGAGAACAUCUUCGGAUGCAGAGGAGGCAGGCUUCGGUGGCGCGAUAGCGCCAACGUCCUCAACCUCCAAGGCAUCCCACCACAUGAUGAUGCCUGAAGAGCCUUGGUUUUUUG,-2.38
19,GACCAAUCUGCCCUCAGAGCUCGAGAACAUCUUCGGAUGCAGAGGAGGCAGGCUUCGGUGGCGCGAUAGCGCCAACGUCCUCAACCUCCAACGCAUCCCACCACAUGAUGAUGCCUGAAGAGCCUUGGUUUUUUG,-0.847
20,GACCAAUCUGCCCUCAGAGCUCGAGAACAUCUUCGGAUGCAGAGGAGGCAGGCUUCGGUGGCGCGAUAGCGCCAACGUCCUCAACCUCCAACGCAUCCGACCACAUGAUGAUUCCUGAAGAGCCUUGGUUUUUUG,-6.05
21,GACCAAUCUGCCCUCAGAGCUCGAGAACAUCUUCGGAUGCAGAGGAGGCAGGCUUCGGUGGCGCGAUAGCGCCAACGUCCUCAACCUCCAACGCAUCCCACCACAUGAUGAUGCCUGAAGAGCCUUGCUUUUUUG,-3.41
